Data reported in patent publication US20250361268A1, “NOVEL ANTI-INFLAMMATORY PEPTIDE AND USE THEREOF” (NOVACELL TECHNOLOGY INC., priority 2022, published 2025).

T1: FPR1 (UniProt P21462 1-350, limits assumed)
T1 sequence (looked up): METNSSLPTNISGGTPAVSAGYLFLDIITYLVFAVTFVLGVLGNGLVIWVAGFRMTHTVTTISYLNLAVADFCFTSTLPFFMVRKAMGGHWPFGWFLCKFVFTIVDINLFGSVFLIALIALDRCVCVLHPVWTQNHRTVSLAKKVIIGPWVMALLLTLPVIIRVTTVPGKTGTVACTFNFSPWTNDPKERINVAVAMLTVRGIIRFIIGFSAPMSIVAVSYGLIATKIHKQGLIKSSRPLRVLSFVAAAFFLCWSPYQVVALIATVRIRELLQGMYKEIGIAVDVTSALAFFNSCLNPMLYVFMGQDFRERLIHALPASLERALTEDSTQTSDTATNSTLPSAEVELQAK


biological target: T1, FPR1; experiment: cell-based or functional assay

Row | Binder | EC50 for [Ca2+] [µM]
1 | RMRYKYM (HELM PEPTIDE1{[ac].R.M.R.Y.K.Y.[dM].[am]}$$$$V2.0; SMILES CSCC[C@H](NC(=O)[C@H](CCCNC(=N)N)NC(C)=O)C(=O)N[C@@H](CCCNC(=N)N)C(=O)N[C@@H](Cc1ccc(O)cc1)C(=O)N[C@@H](CCCCN)C(=O)N[C@@H](Cc1ccc(O)cc1)C(=O)N[C@H](CCSC)C(N)=O) [peptide of SEQ ID NO 39] | > 10
2 | RWRYKYM (HELM PEPTIDE1{[CCCCCCCC(=O)[*:2]].R.W.R.Y.K.Y.[dM].[am]}$$$$V2.0; SMILES CCCCCCCC(=O)N[C@@H](CCCNC(=N)N)C(=O)N[C@@H](Cc1c[nH]c2ccccc12)C(=O)N[C@@H](CCCNC(=N)N)C(=O)N[C@@H](Cc1ccc(O)cc1)C(=O)N[C@@H](CCCCN)C(=O)N[C@@H](Cc1ccc(O)cc1)C(=O)N[C@H](CCSC)C(N)=O) [peptide of SEQ ID NO 34] | > 10
3 | IKFWMM (HELM PEPTIDE1{I.K.F.W.M.[dM].[am]}$$$$V2.0; N-terminus assumed; SMILES CC[C@H](C)[C@H](N)C(=O)N[C@@H](CCCCN)C(=O)N[C@@H](Cc1ccccc1)C(=O)N[C@@H](Cc1c[nH]c2ccccc12)C(=O)N[C@@H](CCSC)C(=O)N[C@H](CCSC)C(N)=O) [peptide of SEQ ID NO 129] | > 10
4 | MKYKVM (HELM PEPTIDE1{[CCCCCCCC(=O)[*:2]].M.K.Y.K.V.[dM].[am]}$$$$V2.0; SMILES CCCCCCCC(=O)N[C@@H](CCSC)C(=O)N[C@@H](CCCCN)C(=O)N[C@@H](Cc1ccc(O)cc1)C(=O)N[C@@H](CCCCN)C(=O)N[C@H](C(=O)N[C@H](CCSC)C(N)=O)C(C)C) [peptide of SEQ ID NO 20] | > 10
5 | MRYKYM (HELM PEPTIDE1{[ac].M.R.Y.K.Y.[dM].[am]}$$$$V2.0; SMILES CSCC[C@H](NC(C)=O)C(=O)N[C@@H](CCCNC(=N)N)C(=O)N[C@@H](Cc1ccc(O)cc1)C(=O)N[C@@H](CCCCN)C(=O)N[C@@H](Cc1ccc(O)cc1)C(=O)N[C@H](CCSC)C(N)=O) [peptide of SEQ ID NO 42] | > 10
6 | MRYKVM (HELM PEPTIDE1{[CCCCCCCC(=O)[*:2]].M.R.Y.K.V.[dM].[am]}$$$$V2.0; SMILES CCCCCCCC(=O)N[C@@H](CCSC)C(=O)N[C@@H](CCCNC(=N)N)C(=O)N[C@@H](Cc1ccc(O)cc1)C(=O)N[C@@H](CCCCN)C(=O)N[C@H](C(=O)N[C@H](CCSC)C(N)=O)C(C)C) [peptide of SEQ ID NO 16] | > 10
7 | RMRYKYM (HELM PEPTIDE1{[CCCCCCCC(=O)[*:2]].R.M.R.Y.K.Y.[dM].[am]}$$$$V2.0; SMILES CCCCCCCC(=O)N[C@@H](CCCNC(=N)N)C(=O)N[C@@H](CCSC)C(=O)N[C@@H](CCCNC(=N)N)C(=O)N[C@@H](Cc1ccc(O)cc1)C(=O)N[C@@H](CCCCN)C(=O)N[C@@H](Cc1ccc(O)cc1)C(=O)N[C@H](CCSC)C(N)=O) [peptide of SEQ ID NO 40] | > 10
8 | RWRYKYM (HELM PEPTIDE1{R.W.R.Y.K.Y.[dM].[am]}$$$$V2.0; N-terminus assumed; SMILES CSCC[C@@H](NC(=O)[C@H](Cc1ccc(O)cc1)NC(=O)[C@H](CCCCN)NC(=O)[C@H](Cc1ccc(O)cc1)NC(=O)[C@H](CCCNC(=N)N)NC(=O)[C@H](Cc1c[nH]c2ccccc12)NC(=O)[C@@H](N)CCCNC(=N)N)C(N)=O) [peptide of SEQ ID NO 32] | > 10

More lines, now with the values ahead:

Row | EC50 for [Ca2+] [µM] | Binder
9 | > 10 | IKKWMM (HELM PEPTIDE1{I.K.K.W.M.[dM].[am]}$$$$V2.0; N-terminus assumed; SMILES CC[C@H](C)[C@H](N)C(=O)N[C@@H](CCCCN)C(=O)N[C@@H](CCCCN)C(=O)N[C@@H](Cc1c[nH]c2ccccc12)C(=O)N[C@@H](CCSC)C(=O)N[C@H](CCSC)C(N)=O) [peptide of SEQ ID NO 130]
10 | > 10 | IKFKYM (HELM PEPTIDE1{I.K.F.K.Y.[dM].[am]}$$$$V2.0; N-terminus assumed; SMILES CC[C@H](C)[C@H](N)C(=O)N[C@@H](CCCCN)C(=O)N[C@@H](Cc1ccccc1)C(=O)N[C@@H](CCCCN)C(=O)N[C@@H](Cc1ccc(O)cc1)C(=O)N[C@H](CCSC)C(N)=O) [peptide of SEQ ID NO 131]
11 | > 10 | RWRYRTM (HELM PEPTIDE1{R.W.R.Y.R.T.[dM].[am]}$$$$V2.0; N-terminus assumed; SMILES CSCC[C@@H](NC(=O)[C@@H](NC(=O)[C@H](CCCNC(=N)N)NC(=O)[C@H](Cc1ccc(O)cc1)NC(=O)[C@H](CCCNC(=N)N)NC(=O)[C@H](Cc1c[nH]c2ccccc12)NC(=O)[C@@H](N)CCCNC(=N)N)[C@@H](C)O)C(N)=O) [peptide of SEQ ID NO 153]
12 | > 10 | IKYKPM (HELM PEPTIDE1{[CCCCCCCC(=O)[*:2]].I.K.Y.K.P.[dM].[am]}$$$$V2.0; SMILES CCCCCCCC(=O)N[C@H](C(=O)N[C@@H](CCCCN)C(=O)N[C@@H](Cc1ccc(O)cc1)C(=O)N[C@@H](CCCCN)C(=O)N1CCC[C@H]1C(=O)N[C@H](CCSC)C(N)=O)[C@@H](C)CC) [peptide of SEQ ID NO 145]
13 | > 10 | RWRYRIM (HELM PEPTIDE1{R.W.R.Y.R.I.[dM].[am]}$$$$V2.0; N-terminus assumed; SMILES CC[C@H](C)[C@H](NC(=O)[C@H](CCCNC(=N)N)NC(=O)[C@H](Cc1ccc(O)cc1)NC(=O)[C@H](CCCNC(=N)N)NC(=O)[C@H](Cc1c[nH]c2ccccc12)NC(=O)[C@@H](N)CCCNC(=N)N)C(=O)N[C@H](CCSC)C(N)=O) [peptide of SEQ ID NO 152]
14 | > 10 | IKFKVM (HELM PEPTIDE1{I.K.F.K.V.[dM].[am]}$$$$V2.0; N-terminus assumed; SMILES CC[C@H](C)[C@H](N)C(=O)N[C@@H](CCCCN)C(=O)N[C@@H](Cc1ccccc1)C(=O)N[C@@H](CCCCN)C(=O)N[C@H](C(=O)N[C@H](CCSC)C(N)=O)C(C)C) [peptide of SEQ ID NO 132]
15 | > 10 | RWRYNYM (HELM PEPTIDE1{R.W.R.Y.N.Y.[dM].[am]}$$$$V2.0; N-terminus assumed; SMILES CSCC[C@@H](NC(=O)[C@H](Cc1ccc(O)cc1)NC(=O)[C@H](CC(N)=O)NC(=O)[C@H](Cc1ccc(O)cc1)NC(=O)[C@H](CCCNC(=N)N)NC(=O)[C@H](Cc1c[nH]c2ccccc12)NC(=O)[C@@H](N)CCCNC(=N)N)C(N)=O) [peptide of SEQ ID NO 155]
